The target of assay [1] is T1, GDF15-HIS (ACROBiosystems, CAT #: GD5-H5149) (human, UniProt Q99988 197-308).
T1 construct: Bought protein; also called GDF15 (ACROBiosystems, GD5-H5149); human GDF15; not shown: His tag
T1 sequence (looked up): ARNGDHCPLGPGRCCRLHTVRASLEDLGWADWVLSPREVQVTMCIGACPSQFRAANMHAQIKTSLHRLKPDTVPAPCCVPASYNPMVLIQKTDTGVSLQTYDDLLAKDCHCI
Kind of assay: ELISA, GDF15-HIS coated. The method, then: The experiment was performed as detailed in Example 2, except that the coating protein was GDF15-HIS (ACROBiosystems, CAT #: GD5-H5149), and the antibodies to be tested (the humanized antibodies), negative control antibody (hIgG1), positive control antibodies Ponsegromab (Pfizer; Drug Bank: D11909) and AV380-hlgG1 (the heavy chain and light chain constant regions of AV380-mIgG1 were replaced with the constant regions of human IgG, i.e., SEQ ID NO. 5 and SEQ ID NO. 6) were added to each well of the coated plate.
On the technique in general: In an ELISA, binding on a coated surface is turned into a signal by an enzyme label.

The next assay concerns the target T2, cynoGDF15-mFC (monkey (cyno); mouse, UniProt G7PWZ3 197-308).
T2 construct: also called monkey GDF15 (cynoGDF15)
T2 sequence (looked up): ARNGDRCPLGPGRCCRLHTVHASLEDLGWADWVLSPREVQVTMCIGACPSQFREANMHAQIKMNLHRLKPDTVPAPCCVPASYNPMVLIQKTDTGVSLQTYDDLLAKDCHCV
Kind of assay: ELISA, cynoGDF15-mFC coated. The method, then: The experiment was performed as detailed in Example 2, except that the coating protein was cynoGDF15-mFC (GDF15: Genbank accession number EHH29815.1; mFC: Genbank accession number AAH31470.1), and the antibodies to be tested (the humanized antibodies), negative control antibody (hIgG1), and positive control antibodies Ponsegromab and AV380-hIgG1 were added to each well of the coated plate.

The target in assay [2] is T1, GDF15-HIS (ACROBiosystems, CAT #: …). The experiment in a line: ELISA on human GDF15, antibody after 2 weeks at 37 °C in PBS. On the procedure:
(§1) […] of the antibodies to be tested (final concentration 1 mg/ml) were added to 200 μl of plasma and PBS, respectively, tightly sealed and placed at 37° C. for 2 weeks. The change of protein binding activity was detected by ELISA.

For assay [3] the target is unchanged. The experiment in a line: BLI (ForteBio Octet), antibody immobilised, GDF15 200-6.25 nM. For orientation: In BLI a coated tip is dipped into the sample, and binding shifts an interference pattern.
Assay [4] has the same target. Kind of assay: ELISA on human GDF15, antibody after 2 weeks at 37 °C in plasma. On the procedure: as §1
For assay [5] the target is unchanged. Kind of assay: ELISA in stability test, antibody before treatment; coated antigen not named.
The target is the same in assay [6]. The experiment in a line: ELISA in stability test, antibody after 40 °C for 1 week; coated antigen not named. The method, then: (§2) An appropriate amount of each antibody was taken and adjusted to 10 mg/mL, and was placed at 40° C. for 1 and 2 weeks. Protein aggregation was detected using SEC-HPLC, and protein binding activity change was detected by ELISA.
For assay [7] the target is unchanged. Kind of assay: ELISA in stability test, antibody after pH 3.6 for 2-4 h; coated antigen not named. The method, then:
An appropriate amount of each antibody was taken and adjusted to 5 mg/mL in storage buffer adjusted to pH 3.6 using an ultrafiltration tube. The antibodies were placed at room temperature for 2-4 hours, then protein aggregation was detected using SEC-HPLC, and protein binding activity change was detected by ELISA.

The target is the same in assay [8]. The experiment in a line: ELISA in stability test, antibody after 40 °C for 2 weeks; coated antigen not named. The method, then: as §2
The target is the same in assay [9]. The experiment in a line: ELISA in stability test, antibody after 5 freeze-thaw cycles; coated antigen not named. On the procedure:
An appropriate amount of each antibody was taken and adjusted to 10 mg/mL, followed by freezing at −80° C. for 10 min, and placing in an ice-water mixture to slowly thaw. The above procedure was repeated 5 times. Protein aggregation was detected using SEC-HPLC, and protein binding activity change was detected by ELISA.

The target in a further assay is T3, GDF15-mFC protein (human; mouse, UniProt Q99988 197-308).
T3 construct: extracellular domain;domain: IgG2a-FC; also called GDF15-mFc fusion protein
T3 sequence (looked up): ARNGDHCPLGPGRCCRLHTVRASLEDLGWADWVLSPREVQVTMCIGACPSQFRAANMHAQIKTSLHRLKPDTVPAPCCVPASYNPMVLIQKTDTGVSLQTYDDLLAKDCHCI
The experiment in a line: blocking ELISA as in Example 4, GFRAL-hIgG1 Fc coated (competitor), GDF15-mFC mixed with antibody. On the procedure:
A fusion protein comprising the extracellular region of GFRAL protein (Genbank accession number NM_207410.2) and human IgG1-FC (Genbank accession number CAC20454.1) was diluted to […] with coating solution, followed by adding to ELISA plate at 50 μl/well and incubating at 4° C. overnight. The solution in the wells was discarded and the plate was washed 3 times with washing solution, each time for 3-5 minutes, and dried via tapping. 200 μl of blocking solution was added to each well followed by incubating at 4° C. overnight. The plate was washed 3 times with washing solution, and the coated plate may be stored at −20° C. or 4° C. for future use.
The antibodies to be tested, positive control antibody AV380-mIgG1 and blank control (PBS) were added to the wells. […] At the same time, GDF15-mFC protein (GDF15: Genbank accession number NM_004864.3; mFC: Genbank accession number AAH31470.1) was added at 20 ng/well and mixed with the antibodies to be tested. The wells were incubated at 37° C. for 1 hour, washed, and dried via tapping. Then the enzyme-labeled secondary antibody, horseradish peroxidase-labeled goat anti-mouse IgG (SIGMA, catalog number A9044-2 ml) was added to each well, at a dilution of 1:10000, 50-100 μl/well. The wells were incubated at 37° C. for 2 hours, washed, and dried via tapping. 100 μl of freshly prepared developing solution TMB was added to each well and incubated at 37° C. for 30 minutes. 2 mol/L H₂SO₄ was added to terminate the reaction, and the OD value was obtained on an enzyme-linked immunosorbent reader.
The experiment was performed as detailed in Example 4, except that the antibodies to be tested (the humanized antibodies), negative control antibody (hIgG1), and positive control antibodies Ponsegromab and AV380-hIgG1 were added to each well of the coated plate.

B1: 53A8(hz) (antibody, human IgG1, kappa, V domains shown)
VH: QVQLQESGPGLVKPSETLSLTCTFSGFSLSTSGMGVGWIRQPPGKGLEWLAHIRWDDVKRYNPALKSRLTISKDTSKSQISLKLSSVTAADTAVYYCAQMAWDWFAYWGQGTTVTVSS
VL: DIQMTQSPSSLSASVGDRVTITCKASQNVDTDVAWYQQKPGQSPKALIYSASYRYSGVPSRFSGSGSGTDFTLTISSLQPEDFATYYCHQYNSYPTFGQGTRLEIKR
notes: also called humanized antibody 53A8
The term EC50 denotes the concentration that produces a half-maximal response. The Kd is the equilibrium constant for the complex coming apart. What is called koff is the first-order rate constant of dissociation. The kon is a measure of how fast the partners come together. One may read the IC50 as the midpoint of a concentration-inhibition curve. With B1, the EC50 in [1] came to 0.0827 µg/mL; with cynoGDF15-mFC it was 0.0775 µg/mL; in [2], 0.113 µg/mL; in assay [4], 0.0413 µg/mL; in assay [5], 0.0412 µg/mL; in [6], 0.0643 µg/mL. Moreover, the EC50 was 0.0691 µg/mL in assay [7], 0.0296 µg/mL in assay [8] and 0.0673 µg/mL in [9]. Further, the figures for the OD450.Max (in assay [1]; with cynoGDF15-mFC; with GDF15-mFC protein) were 1.05 OD450, 1.03 OD450 and 1.1 OD450, respectively. This molecule showed a Kd in assay [3] of 0.266 nM. This molecule also had a koff in assay [3] of 0.000257 s⁻¹. The molecule further gave a kon in [3] of 967000 M⁻¹ s⁻¹. In the assay with GDF15-mFC protein, this molecule gave a half-inhibitory concentration (IC50) of 0.283 µg/mL.

The values are drawn from patent US20250092124A1 (YUNNAN BAIYAO GROUP, published 2025).
